The values that follow come from US20210147519A1 (Regeneron, published 2021).

Bounds are passed on as bounds.

Assay [1] has as its target T1, native human complement component C1q protein purified from human serum (Quidel) (human, UniProt P02745 23-245; P02746 28-253; P02747 29-245). The experiment in a line: cell-based or functional assay.
Assay [2] deals with T1, native human complement component C1q …. The experiment in a line: cell-based or functional assay. The source holds these as a separate data set.
Assay [3] has as its target T2, IsdB expressed on the surface of S. aureus Wood 46 (Staphylococcus aureus).
T2 construct: whole, on cells
The experiment in a line: ELISA on plate-coated S. aureus Wood 46.
Experimental: Briefly, S. aureus Wood 46 was grown in RPMI overnight, washed in PBS and adjusted to an OD₆₀₀ of 0.25. MaxiSorp 96 well microtiter plates were coated overnight with 100 μl of S. aureus culture per well. Plates were washed and blocked with 3% BSA. […] Anti-human HRP conjugated secondary antibody was added to washed plates. Luminescence reagents (SuperSignal Pico) were then added to the wells and signal was detected in a plate reader (Victor X3 plate reader, Perkin Elmer) immediately. Luminescence values were analyzed by a four-parameter logistic equation over a 7-point response curve (GraphPad Prism) to determine the binding EC₅₀, of the antibodies.

Assay [4] addresses T1, native human complement component C1q …. Description: SPR Biacore, captured Ab, hC1q analyte, 25C.
Assay [5] has the same target. The experiment in a line: SPR Biacore, captured Ab, hC1q analyte, 37C.
For assay [6], the target named is T3, Recombinant bacterial IsdB expressed with a hexahistidine tag (IsdB-6xHis; REGN2655) (Staphylococcus aureus, UniProt A6QG30 42-613). The experiment in a line: SPR Biacore, captured Ab, IsdB-6xHis analyte, 25C.
Assay [7] has as its target T3, Recombinant bacterial IsdB expressed …. The experiment in a line: SPR Biacore, captured Ab, IsdB-6xHis analyte, 37C.
The target of assay [8] is T1, native human complement component C1q …. Description: competition ELISA, 6 nM biot-hC1q, competitor plate-coated hIgM.
Assay [9] shares this target. Description: competition ELISA, 6 nM biot-hC1q, competitor plate-coated hIgG2-k.
For assay [10] the target is unchanged. Description: competition ELISA, 30 pM biot-hC1q, competitor plate-coated hIgG1-k.
Assay [11] has the same target. Description: competition ELISA, 30 pM biot-hC1q, competitor plate-coated hIgG3-k.

T1 sequence (P02745 23-245 limits assumed, chain 1 of 3): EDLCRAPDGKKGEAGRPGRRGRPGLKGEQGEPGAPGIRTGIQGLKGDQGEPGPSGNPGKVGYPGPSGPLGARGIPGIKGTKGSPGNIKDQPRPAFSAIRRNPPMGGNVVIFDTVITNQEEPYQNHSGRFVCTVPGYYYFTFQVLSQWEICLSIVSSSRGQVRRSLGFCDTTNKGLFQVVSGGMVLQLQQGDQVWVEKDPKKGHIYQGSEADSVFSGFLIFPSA
T1 sequence (P02746 28-253 limits assumed, chain 2 of 3): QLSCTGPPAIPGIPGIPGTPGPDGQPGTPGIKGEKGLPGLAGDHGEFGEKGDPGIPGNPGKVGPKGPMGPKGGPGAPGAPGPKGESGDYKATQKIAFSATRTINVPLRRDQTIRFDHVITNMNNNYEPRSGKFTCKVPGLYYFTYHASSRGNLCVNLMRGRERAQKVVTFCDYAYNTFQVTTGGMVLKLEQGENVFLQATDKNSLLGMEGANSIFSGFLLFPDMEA
T1 sequence (P02747 29-245 limits assumed, chain 3 of 3): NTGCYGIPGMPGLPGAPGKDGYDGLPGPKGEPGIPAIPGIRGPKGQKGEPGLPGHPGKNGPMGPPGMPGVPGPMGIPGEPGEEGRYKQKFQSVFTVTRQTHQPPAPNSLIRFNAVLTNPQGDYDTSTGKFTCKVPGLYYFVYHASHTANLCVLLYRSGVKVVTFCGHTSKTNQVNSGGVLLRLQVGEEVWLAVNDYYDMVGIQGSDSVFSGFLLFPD
T2 sequence (Q2FZF0 41-613): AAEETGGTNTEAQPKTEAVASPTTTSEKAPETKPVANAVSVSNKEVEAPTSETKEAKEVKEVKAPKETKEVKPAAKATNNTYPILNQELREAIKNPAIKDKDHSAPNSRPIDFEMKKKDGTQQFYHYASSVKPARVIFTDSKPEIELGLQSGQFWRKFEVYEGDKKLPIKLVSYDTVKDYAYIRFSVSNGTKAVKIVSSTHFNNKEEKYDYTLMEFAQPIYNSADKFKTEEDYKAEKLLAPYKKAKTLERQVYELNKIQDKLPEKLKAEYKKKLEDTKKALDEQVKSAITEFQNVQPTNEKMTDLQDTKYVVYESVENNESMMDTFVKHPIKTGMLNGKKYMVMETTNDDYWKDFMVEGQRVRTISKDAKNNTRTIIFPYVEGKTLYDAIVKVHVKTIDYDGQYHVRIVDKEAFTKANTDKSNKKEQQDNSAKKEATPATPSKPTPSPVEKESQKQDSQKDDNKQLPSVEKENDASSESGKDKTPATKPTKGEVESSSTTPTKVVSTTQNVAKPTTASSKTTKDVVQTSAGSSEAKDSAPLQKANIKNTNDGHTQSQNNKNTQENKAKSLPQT
T3 sequence (A6QG30 42-613, tags left off): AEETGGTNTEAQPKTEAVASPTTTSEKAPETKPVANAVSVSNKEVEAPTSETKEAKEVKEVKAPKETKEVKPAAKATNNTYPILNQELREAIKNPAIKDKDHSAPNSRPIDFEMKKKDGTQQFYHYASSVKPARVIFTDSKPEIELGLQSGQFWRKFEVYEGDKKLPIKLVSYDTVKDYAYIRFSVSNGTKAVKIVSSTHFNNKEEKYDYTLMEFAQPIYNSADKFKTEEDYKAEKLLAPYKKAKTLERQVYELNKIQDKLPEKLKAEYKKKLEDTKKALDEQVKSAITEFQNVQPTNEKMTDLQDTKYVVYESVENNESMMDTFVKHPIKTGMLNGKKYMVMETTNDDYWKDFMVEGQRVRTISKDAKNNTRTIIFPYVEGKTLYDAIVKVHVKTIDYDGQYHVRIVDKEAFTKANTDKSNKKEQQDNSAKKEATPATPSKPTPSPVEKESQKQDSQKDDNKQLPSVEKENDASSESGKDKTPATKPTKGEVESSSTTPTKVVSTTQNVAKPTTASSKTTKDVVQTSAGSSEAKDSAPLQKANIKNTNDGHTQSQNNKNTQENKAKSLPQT

B1: H1H20639D (bispecific antibody, V domains shown)
VH 1: QLQLQESGPGLVKPSETLSLTCTVSGGSISSSSYYWVWIRQPPGKGLEWIGNIYFSGSTYYNPSLKSRVTITVDTSKNQFSLKMTSVTAADTAVYYCARPFYGSRGDYYYGMDVWGQGTTVTVSS
VH 2: QVQLVESGGGVVQPGRSLRLSCAASGFTFSSYGMHWVRQAPGKGLEWVTNIWYDGNNKYYTDSVKGRFTISRDNSKNTLYLQMNSLTAEDTAVYYCARDGDYYVMDVWGQGTTVTVSS
VL: not shown
notes: also called anti-IsdB x anti-C1q bispecific antibody
For B1, in [1], the “inhibition of CDC of Daudi cells, IC50 [M]” value (shortened to “inhibition of CDC … [M]”) is above 1e-07 M and the “inhibition of CDC of Daudi cells, Max % Inhibition” value (shortened to “inhibition … Max % Inhibition”) was determined as 70%. Further, the “C1q deposition on S. aureus Cowan I EC50” value in assay [2] came to 2.06 nM. It took 13.3 nM to reach a half-maximal effect in [3] (EC50). In [4], this molecule had a Kd of 0.655 nM, an off-rate constant (koff) of 0.00612 s⁻¹, a kon of 9.35e+06 M⁻¹ s⁻¹ and a t½ of 1.89 min. Besides, in [5], the equilibrium dissociation constant (Kd) amounted to 0.664 nM, the koff stood at 0.00859 s⁻¹, the association rate constant (kon) was determined as 1.29e+07 M⁻¹ s⁻¹ and the t1/2 came to 1.34 min. For the same molecule, in [6], the Kd is 11.3 nM, the koff was found to be 0.000562 s⁻¹, the association rate constant (kon) was 49800 M⁻¹ s⁻¹ and the t½ came out at 20.5 min. For the same molecule, in assay [7], the dissociation constant Kd came out at 18.5 nM, the koff came to 0.00148 s⁻¹, the kon turned out to be 80200 M⁻¹ s⁻¹ and the t1/2 worked out at 7.81 min. Also, in assay [8], the “% Blockade with 600 nM bispecific Ab” value came out at 86% and the IC50 was determined as 42 nM. In [9], the “% Blockade with 600 nM bispecific Ab” value amounted to 82% and the IC50 was 70 nM. Further, the “% Blockade with 30 nM bispecific Ab” value in assay [10] came out at 64%. In assay [11], the “% Blockade with 30 nM bispecific Ab” value stood at 33%.

B2: H1H20644D (bispecific antibody, V domains shown)
VH 1: QLQLQESGPGLVKPSETLSLTCTVSGGSISSSSYYWVWIRQPPGKGLEWIGNIYFSGSTYYNPSLKSRVTITVDTSKNQFSLKMTSVTAADTAVYYCARPFYGSRGDYYYGMDVWGQGTTVTVSS
VH 2: QVQLVESGGGVVQPGRSLRLSCATSGFTFSSYGMHWVRQAPGKGLEWVALIWYDRNNEYYADSVKGRFTISRDNSKNTLYLQMNSLRAEDTAVYYCARGEWEMDYWGQGTLVTVSS
VL: not shown
notes: as for B1
Regarding B2, in [1], the “inhibition of CDC … [M]” value was above 1e-07 M and the “inhibition … Max % Inhibition” value came out at 88%. The “C1q deposition on S. aureus Cowan I EC50” value in assay [2] is 1.12 nM. For the same molecule, the EC50 in assay [3] turned out to be 12.6 nM. Besides, in assay [4], the affinity, expressed as Kd, was 0.232 nM; the koff is 0.00624 s⁻¹; the kon was determined as 2.69e+07 M⁻¹ s⁻¹; the t½ amounted to 1.85 min. In assay [5], this molecule yielded a Kd of 0.924 nM, an off-rate (koff) of 0.0276 s⁻¹, an on-rate (kon) of 2.98e+07 M⁻¹ s⁻¹ and a t1/2 of 0.42 min. In [6], the Kd is 11 nM, the koff was determined as 0.000554 s⁻¹, the kon stood at 50300 M⁻¹ s⁻¹ and the t½ came to 20.8 min. In [7], the dissociation constant (Kd) stood at 18.2 nM, the koff is 0.0015 s⁻¹, the kon turned out to be 82500 M⁻¹ s⁻¹ and the t1/2 worked out at 7.7 min. Also, in [8], the “% Blockade with 600 nM bispecific Ab” value came to 75% and the IC50 was found to be 43 nM. Further, in assay [9], the “% Blockade with 600 nM bispecific Ab” value is 81% and the IC50 was 63 nM. Also, in assay [10], the “% Blockade with 30 nM bispecific Ab” value was found to be 66% and the half-inhibitory concentration (IC50) was 24 nM. In [11], the “% Blockade with 30 nM bispecific Ab” value worked out at 36%.

B3: H1H20640D (bispecific antibody, V domains shown)
VH 1: QLQLQESGPGLVKPSETLSLTCTVSGGSISSSSYYWVWIRQPPGKGLEWIGNIYFSGSTYYNPSLKSRVTITVDTSKNQFSLKMTSVTAADTAVYYCARPFYGSRGDYYYGMDVWGQGTTVTVSS
VH 2: EVQLVQSGPEVKKPGESLKISCKGSGYNFLGYWIGWVRQMPEKGLEWMAFIYPGDSDFRYSPSFQGQVTISVDRSVTTAYLHWSSLKASDTGIYFCVRQTGNGMDVWGQGTTVTVSS
VL: not shown
notes: as for B1
B3 showed an EC50 in assay [3] of 18 nM. In [6], the Kd came out at 9.36 nM, the koff amounted to 0.000553 s⁻¹, the kon came out at 59100 M⁻¹ s⁻¹ and the t½ was found to be 20.9 min. For the same molecule, in assay [7], the Kd was 17.2 nM, the koff is 0.00142 s⁻¹, the kon is 82800 M⁻¹ s⁻¹ and the t1/2 worked out at 8.13 min.

B4: H1H20643D (bispecific antibody, V domains shown)
VH 1: QLQLQESGPGLVKPSETLSLTCTVSGGSISSSSYYWVWIRQPPGKGLEWIGNIYFSGSTYYNPSLKSRVTITVDTSKNQFSLKMTSVTAADTAVYYCARPFYGSRGDYYYGMDVWGQGTTVTVSS
VH 2: EVQLVQSGAEVKKPGDSLKISCKGSGYSFTTYWIGWVRQMPGKGLEWMGIIFPGDSDTRYSPSFQGQVTISADKSINTAYLQWSSLKASDTAIYYCARHNRWVADYWGQGTLVTVSS
VL: not shown
notes: as for B1
Turning to B4, it took 10.1 nM to reach a half-maximal effect in assay [3] (EC50). Besides, in assay [6], the Kd was determined as 9.42 nM, the off-rate constant (koff) stood at 0.000555 s⁻¹, the kon is 58900 M⁻¹ s⁻¹ and the t½ stood at 20.8 min. In assay [7], the Kd is 18.5 nM, the koff turned out to be 0.00148 s⁻¹, the kon amounted to 79900 M⁻¹ s⁻¹ and the t1/2 turned out to be 7.81 min.

B5: H1H20646D (bispecific antibody, V domains shown)
VH 1: QLQLQESGPGLVKPSETLSLTCTVSGGSISSSSYYWVWIRQPPGKGLEWIGNIYFSGSTYYNPSLKSRVTITVDTSKNQFSLKMTSVTAADTAVYYCARPFYGSRGDYYYGMDVWGQGTTVTVSS
VH 2: EVQLVQSGAEVRKPGESLKISCKGSGFSFTSYWIGWVRQMPGKGLEWMGIIFPADSDTRYSPSFQGQVTISADKSINTAYLQWRSLKVSDTAMYYCTKLQYWYFDLWGRGTLVTVSS
VL: not shown
notes: as for B1
B5 returned a concentration for a half-maximal effect (EC50) in [3] of 12.9 nM. Further, in assay [6], the Kd came to 9.74 nM, the koff stood at 0.000433 s⁻¹, the on-rate constant (kon) is 44500 M⁻¹ s⁻¹ and the t½ is 26.7 min. In assay [7], the dissociation constant Kd turned out to be 18.5 nM, the koff was found to be 0.0015 s⁻¹, the kon came out at 80700 M⁻¹ s⁻¹ and the t1/2 turned out to be 7.72 min.

B6: H1H20647D (bispecific antibody, V domains shown)
VH 1: QLQLQESGPGLVKPSETLSLTCTVSGGSISSSSYYWVWIRQPPGKGLEWIGNIYFSGSTYYNPSLKSRVTITVDTSKNQFSLKMTSVTAADTAVYYCARPFYGSRGDYYYGMDVWGQGTTVTVSS
VH 2: QVQLVESGGGVVQPGRSLRLSCAASGFTFSSYGMHWVRQAPGKGLEWVALIWYDGSNKYFADSVKGRFTISRDISKNTLYLQMNSLRAEDTAVYYCARDGDYYGMDVWGQGTTVTVSS
VL: not shown
notes: as for B1
With B6, in [1], the “inhibition of CDC … [M]” value was above 1e-07 M and the “inhibition … Max % Inhibition” value came to 82%. Further, in assay [2], the “C1q deposition on S. aureus Cowan I EC50” value came to 0.587 nM. For the same molecule, it took 7.3 nM to reach a half-maximal effect in assay [3] (EC50). In assay [4], the Kd was 0.368 nM, the koff came to 0.0034 s⁻¹, the on-rate constant (kon) came out at 9.25e+06 M⁻¹ s⁻¹ and the t½ turned out to be 3.39 min. Further, in assay [5], the equilibrium dissociation constant (Kd) came to 0.439 nM, the koff was determined as 0.00576 s⁻¹, the kon was found to be 1.31e+07 M⁻¹ s⁻¹ and the t1/2 was determined as 2 min. In addition, in assay [6], the Kd turned out to be 12.3 nM, the koff turned out to be 0.000565 s⁻¹, the on-rate (kon) is 46000 M⁻¹ s⁻¹ and the t½ amounted to 20.4 min. In addition, in assay [7], the Kd was determined as 21.5 nM, the koff worked out at 0.00154 s⁻¹, the kon is 71500 M⁻¹ s⁻¹ and the t1/2 was found to be 7.51 min. Besides, in assay [8], the “% Blockade with 600 nM bispecific Ab” value came to 91% and the IC50 came out at 25 nM. Further, in assay [9], the “% Blockade with 600 nM bispecific Ab” value was 80% and the IC50 is 32 nM. In assay [10], the “% Blockade with 30 nM bispecific Ab” value turned out to be 85% and the IC50 amounted to 9 nM. Besides, the “% Blockade with 30 nM bispecific Ab” value in [11] turned out to be 60%.

B7: H1H20634D (bispecific antibody, V domains shown)
VH 1: EVQLVESGGGLVQPGRSLRLSCTTSGFTFDDYAMHWVRQVPGQGLEWVAGLSWNSDTIGYADSVKGRFTISRDNAKNSLYLQMKSLKAEDTALYYCTKDFYHSLNNWNYYYFDYWGQGTLVTVSS
VH 2: QVQLVESGGGVVQPGRSLRLSCVASGFTFSSYGFHWVRQAPGKGLEWVAVIWYDGSNEGYVDSVRGRFTISRDFSKNTLYLQMNSLRIEDTAVYYCARRGDYYIMDVWGQGTTVTVSS
VL: not shown
notes: as for B1
B7 gave an EC50 in [3] of 1.04 nM. Further, in assay [6], the Kd amounted to 2.65 nM, the off-rate constant (koff) was 0.000296 s⁻¹, the association rate constant (kon) was 112000 M⁻¹ s⁻¹ and the t½ was 39 min. In [7], the dissociation constant Kd amounted to 3.81 nM, the off-rate (koff) amounted to 0.000573 s⁻¹, the on-rate constant (kon) turned out to be 150000 M⁻¹ s⁻¹ and the t1/2 stood at 20.2 min.
